The assay addresses HLA A*0201 α chain with β2m, recombinant, biotinylated. Description: SPR.

As for Melan-A/MART-1 26-35 peptide […], the half-life of the pMHCI complex was 6 h.

The values above are taken from article PMC3024538.
